The values that follow come from the supplement of paper PMC10201428.

± gives the standard deviation of the averaged measurements.

For this data set, the system named is VchCAST RNA-guided transposition machinery (E. coli BL21(DE3) host, lacZ target). As to the kind of experiment: relative integration efficiency (T-LR orientation) vs wild-type transposon end (log2 (normalized fold change)); transposon end mutated: right end (5 bp flank + 75 bp right end); higher = more efficient transposition. In outline:
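In E. coli BL21(DE3), a T7-driven effector plasmid was paired with a pUC57 mini-transposon donor containing 1549 left-end or 1849 right-end barcoded transposon variants. Cells grew on plates with 0.1 mM IPTG at 37°C for 18 h. Relative integration efficiency was derived from Illumina reads of genomic integration junctions against input plasmids, as a log-transformed output/input barcode fold change normalised to reference barcodes.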
Turning to “ACATTTGTTGATACAACCAAAAAATGATAATTACACCCAAAAATTGATAATTATCACACCCAAAAATTGATATTGCCTCTGATCATAGTCAGACCAACATTGCTACGACCCGTATTCGCACCGACAC”, the “relative integration efficiency (log2)” value is 0.0409 ± 0.087.

As to “ACATTTGTTGATACAACCATAAAAGGATAATTACACCCATCAATTGATAATTATCCCACCCAATTTAACTATAACGCTCTGATCATAGTCAGACCAACATTGCTACGACCCGTATTCGCACCGACAC”, the “relative integration efficiency (log2)” value worked out at 0.901 ± 0.1.

In the case of “ACATTTGTTGATACAACCATAAAATGATAATTAATAATTATTTATACACCCATAAATTGATAATTATCACACCCATAAATTGATATTGCCTCTGATCATAGTCAGACCAACATTGCTACGACCCGTA”, the “relative integration efficiency (log2)” value is -0.465 ± 0.37.

Consider “ACATTTGTTGATACAAAACGCCCCGTCGCCGGCACAAACGCCCGGTCGCCGGCGACACAAACGCCCGGTCGCGGTAAGAGGATCATAGTCAGACCAACATTGCTACGACCCGTATTCGCACCGACAC”, for which the “relative integration efficiency (log2)” value was -5.49 ± 0.46.

In the case of “ACATTTGTTGATACAACCATAAATACTTAATTACACCCATAAATTGATAATTATCACACCCATAAATTGATATTGCCTCTGATCATAGTCAGACCAACATTGCTACGACCCGTATTCGCACCGACAC”, the “relative integration efficiency (log2)” value was -2.42 ± 0.21.

With “ACATTTGTTGATACAACCATAAAGTGATATTTACAACCATAAGTTGATATTTTTCAGTGGGTATTTAACTATAACGCTCTGATCATAGTCAGACCAACATTGCTACGACCCGTATTCGCACCGACAC”, the “relative integration efficiency (log2)” value stood at 2.73 ± 0.16.

In the case of “ACATTTGTTGATACAACCATAAAATGATAATTCCACCCATAAATTGATAATTCTCACACCCATAAATTGATATTGACTCTGATCATAGTCAGACCAACATTGCTACGACCCGTATTCGCACCGACAC”, the “relative integration efficiency (log2)” value was -0.163 ± 0.16.

Turning to “ACATTTGTCGATACAACCATAAAATGATAATTACACCCATAAATTCATAATTATCACCCCCAATTTAACTATAACGCTCTGATCATAGTCAGACCAACATTGCTACGACCCGTATTCGCACCGACAC”, the “relative integration efficiency (log2)” value amounted to 1.18 ± 0.19.

Consider “ACATTTGTTGATACAACCATAAAATGATAAGGCACAAACGCCCGGTCGCCGGCGACACAAACGCCCGGTCGCGGTAAGAGGATCATAGTCAGACCAACATTGCTACGACCCGTATTCGCACCGACAC”, for which the “relative integration efficiency (log2)” value turned out to be 1.225 ± 0.01.

Take “ACATTTGTTGATACAACCATAAAATGATAATTAATAATTACACCCATAAATTGATAATTATCACACCCATAAATTGATATTGCCTCTGATCATAGTCAGACCAACATTGCTACGACCCGTATTCGCA”: the “relative integration efficiency (log2)” value was determined as 0.0363 ± 0.21.

As for “ACATTTGTTGATATCAACCATAAAATGATAATTACACCCATAAATTGATAATTATCACACCCATAAATTGATATTGCCTCTGATCATAGTCAGACCAACATTGCTACGACCCGTATTCGCACCGACA”, the “relative integration efficiency (log2)” value was -1.376 ± 0.0096.

Consider “ACATTTGTGGATCCAACCATAAAATGATAATTACACCCATAAATTGATCATTATCACACCCAATTTAACTATAACGCTCTGATCATAGTCAGACCAACATTGCTACGACCCGTATTCGCACCGACAC”, for which the “relative integration efficiency (log2)” value turned out to be 1.72 ± 0.11.

With “ACATTTGTTGATACAACCATCAAATGATAATTCCACCCATAAATTGATAATTATCACACCCAATTTAACTATAACGCTCTGATCATAGTCAGACCAACATTGCTACGACCCGTATTCGCACCGACAC”, the “relative integration efficiency (log2)” value is 1.44 ± 0.11.

Regarding “ACATTTGTTGATACAACCATAAAATGATAATTACCACCCATACATTGATAATTATCACACCCATTTAACTATAACGCTCTGATCATAGTCAGACCAACATTGCTACGACCCGTATTCGCACCGACAC”, the “relative integration efficiency (log2)” value is 0.106 ± 0.04.

In the case of “ACATTTGTTGATACAACCATAAAATGATAATTACACCCATAAATTGATAATTATCACACCCATAAATTGATATTGCCTCTAGCTTGATCTACATTGGATTGCCATTCTCTCACAGTAGCACCGACAC”, the “relative integration efficiency (log2)” value was found to be 0.213 ± 0.1.

With “ACATTTGTTGATACACCCATAAATTGATAATTACAACCATAAAATGATAATTATCACACCCATAAATTGATAATTACTCTGATCATAGTCAGACCAACATTGCTACGACCCGTATTCGCACCGACAC”, the “relative integration efficiency (log2)” value was -0.234 ± 0.37.

In the case of “ACATTTGTTGATACAACCATTAAATGGTAATTCCACCCAAATATTGATAATTATCACACCCAATTTAACTATAACGCTCTGATCATAGTCAGACCAACATTGCTACGACCCGTATTCGCACCGACAC”, the “relative integration efficiency (log2)” value worked out at 0.805 ± 0.3.

Regarding “ACATTTGTCGATACAACCCTAAAATGATAATTACACCCATAAATTCATCATTATCACACCCAATTTAACTATAACGCTCTGATCATAGTCAGACCAACATTGCTACGACCCGTATTCGCACCGACAC”, the “relative integration efficiency (log2)” value was -1.06 ± 0.37.

Regarding “AGTTTTGTTGATACAACCATAAAATGATAATTACACCCATAAATTGATAATTATCACACCCATAAATTGATATTGCCTCTGATCATAGTCAGACCAACATTGCTACGACCCGTATTCGCACCGACAC”, the “relative integration efficiency (log2)” value came out at 0.122 ± 0.29.

On to “ACATTTGTTGATACAACCCTAAAATGATAATTACACCCATAAATGGATCATTATCACCCCCAATTTAACTATAACGCTCTGATCATAGTCAGACCAACATTGCTACGACCCGTATTCGCACCGACAC”, for which the “relative integration efficiency (log2)” value is -1.44 ± 0.036.

Take “ACATTTGTTGATCAAACCATAAAATGATAATTACACCCATAAATTGATAATTATCACACCCATAAATTGATATTGCCTCTGATCATAGTCAGACCAACATTGCTACGACCCGTATTCGCACCGACAC”: the “relative integration efficiency (log2)” value is -0.874 ± 0.45.

“ACATTTGTTGATACAACCATAAAATGATAATTACAACCATATATTGATATCTCTCACACCCATAAATTGATATTGCCTCTGATCATAGTCAGACCAACATTGCTACGACCCGTATTCGCACCGACAC”: the “relative integration efficiency (log2)” value came to 0.0992 ± 0.38.

As to “ACATTTGTTGATACAACCATATATTGATATCTCCAACCATAAAATGATAATTATCACAACCATAAAATGATAATTACTCTGATCATAGTCAGACCAACATTGCTACGACCCGTATTCGCACCGACAC”, the “relative integration efficiency (log2)” value was -0.314 ± 0.062.

In the case of “ACATTTGTGGATACAACCCTAAAATGATAATTACACCCATAAATTGATCATTATCACACCCAATTTAACTATAACGCTCTGATCATAGTCAGACCAACATTGCTACGACCCGTATTCGCACCGACAC”, the “relative integration efficiency (log2)” value came out at 0.117 ± 0.091.

In the case of “ACATTTGTTGATACAACCATAAAATGATAATTAATAATTATTTATAATCAGCACCCATAAATTGATAATTATCAACAAACGCCCGGTCGCGGTACTCTGATCATAGTCAGACCAACATTGCTACGAC”, the “relative integration efficiency (log2)” value worked out at 0.752 ± 0.5.

As to “ACATTTGTTGATACAACCATAAAATGATAATGCCACCCATAAATTGATAATTATCACACCCATAAATTGATATTGCCTCTGATCATAGTCAGACCAACATTGCTACGACCCGTATTCGCACCGACAC”, the “relative integration efficiency (log2)” value was -0.173 ± 0.33.

For “ACATTTGTTGATACAACCATAAAATGATAATTAATAATTATTTATAATCAGCCACCCATAAATTGATAATTATCACACCCATAAATTGATATTGCCTCTGATCATAGTCAGACCAACATTGCTACGA”, the “relative integration efficiency (log2)” value was -0.898 ± 1.2.

On to “ACATTTGTTGATACACCCATAAATTGATAATTACAACCATAAAGTGATATTTATCAGTGGGTATTTAACTATAACGCTCTGATCATAGTCAGACCAACATTGCTACGACCCGTATTCGCACCGACAC”, for which the “relative integration efficiency (log2)” value was 2.08 ± 0.1.

In the case of “ACATTTGCTGATAGAACCATTTAATGATAATAACACCAATAAAATGATAATTATCACACCCAATTTAACTATAACGCTCTGATCATAGTCAGACCAACATTGCTACGACCCGTATTCGCACCGACAC”, the “relative integration efficiency (log2)” value is -2.93 ± 0.82.

Take “ACATTTGTTGATACAACCATATATTGATATCTCCACCCATAAATTGATATTGCTCACAACCATATATTGATATCTCCTCTGATCATAGTCAGACCAACATTGCTACGACCCGTATTCGCACCGACAC”: the “relative integration efficiency (log2)” value came to 0.439 ± 0.28.

Regarding “ACATTTGTTGATACACCCATAAATTGATATTGCCACCCATAAATTGATAATTATCACAACCATAAAATGATAATTACTCTGATCATAGTCAGACCAACATTGCTACGACCCGTATTCGCACCGACAC”, the “relative integration efficiency (log2)” value is -0.453 ± 0.047.

“ACATTTGTTGATACACCCATAAATTGATAATTACACCCATAAATTGATATTGCTCACAACCATAAAGTGATATTTACTCTGATCATAGTCAGACCAACATTGCTACGACCCGTATTCGCACCGACAC”: the “relative integration efficiency (log2)” value is -0.114 ± 0.24.
